Data from PMC4604347, “Local regulation of the Srs2 helicase by the SUMO-like domain protein Esc2 promotes recombination at sites of stalled replication”.
Substitutions are numbered along the chain they refer to.

T1: Esc2 200-456 (Saccharomyces cerevisiae, UniProt Q06340 200-456)
T1 sequence: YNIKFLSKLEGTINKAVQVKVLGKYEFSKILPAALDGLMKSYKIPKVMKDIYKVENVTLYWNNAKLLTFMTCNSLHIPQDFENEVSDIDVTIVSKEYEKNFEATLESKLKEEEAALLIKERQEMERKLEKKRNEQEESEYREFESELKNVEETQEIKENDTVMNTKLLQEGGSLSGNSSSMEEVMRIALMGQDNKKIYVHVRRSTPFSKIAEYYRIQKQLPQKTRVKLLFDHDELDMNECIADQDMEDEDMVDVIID

T2: Esc2 (Saccharomyces cerevisiae, UniProt Q06340 1-456)
T2 sequence: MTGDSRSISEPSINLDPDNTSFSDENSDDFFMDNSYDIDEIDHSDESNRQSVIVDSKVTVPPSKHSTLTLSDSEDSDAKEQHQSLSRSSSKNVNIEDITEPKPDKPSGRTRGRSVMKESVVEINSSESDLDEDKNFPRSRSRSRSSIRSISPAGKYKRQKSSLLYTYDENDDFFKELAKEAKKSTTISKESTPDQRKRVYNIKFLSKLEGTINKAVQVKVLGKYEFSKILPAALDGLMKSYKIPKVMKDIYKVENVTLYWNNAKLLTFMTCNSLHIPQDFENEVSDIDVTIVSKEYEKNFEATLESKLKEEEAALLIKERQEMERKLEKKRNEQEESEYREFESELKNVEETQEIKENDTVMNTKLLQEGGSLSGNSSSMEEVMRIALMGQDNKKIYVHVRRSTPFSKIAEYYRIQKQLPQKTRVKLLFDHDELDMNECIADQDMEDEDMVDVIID

T3: Esc2 FF173,174AA (Saccharomyces cerevisiae, UniProt Q06340 1-456, F173A;F174A)
T3 sequence: T2 sequence with F173A, F174A

T4: Esc2 1-151 (Saccharomyces cerevisiae, UniProt Q06340 1-151)
T4 sequence: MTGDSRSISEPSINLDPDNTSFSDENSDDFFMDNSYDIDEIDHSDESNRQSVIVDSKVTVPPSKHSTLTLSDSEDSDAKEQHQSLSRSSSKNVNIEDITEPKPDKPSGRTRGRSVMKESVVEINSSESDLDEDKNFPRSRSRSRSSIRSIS

T5: Esc2 1-199 (Saccharomyces cerevisiae, UniProt Q06340 1-199)
T5 sequence: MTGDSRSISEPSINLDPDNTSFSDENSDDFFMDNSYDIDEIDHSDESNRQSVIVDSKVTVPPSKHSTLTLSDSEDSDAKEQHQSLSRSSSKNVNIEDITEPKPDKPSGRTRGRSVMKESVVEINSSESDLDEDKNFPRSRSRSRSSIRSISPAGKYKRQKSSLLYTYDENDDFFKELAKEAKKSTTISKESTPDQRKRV

B1: Fork (oligos 18, 20, 21, 22) (structured_DNA)
DNA 1: AGCTACCATGCCTGCACGAATTAAGCAATTCGTAATCATGGTCATAGCT
DNA 2: CTACAGTTCGTCAGGATTCC
DNA 3: AATTCGTGCAGGCATGGTAGCT
DNA 4: AGCTATGACCATGATTACGAATTGCTTGGAATCCTGACGAACTGTAG
B2: 3'-Flap (oligos 18, 21, 22) (structured_DNA)
DNA 1: B1 DNA 1
DNA 2: AATTCGTGCAGGCATGGTAGCT
DNA 3: B1 DNA 4

Columns and labels:
Esc2 200-456 = target: T1, Esc2 200-456; experiment: EMSA; up to 1000 nM protein; EMSA, 7 nM fluorescein-labeled DNA, 10 min at 37 C; buffer, salt and pH not given in the material; conditions: protein: recombinant; tags: expressed as GST fusion; tag status in assay not explicit; label: 5'-fluorescein on strand 1; fork 1:3 1:4 2:4; three duplex arms
Esc2 = target: T2, Esc2; experiment: EMSA; strong preference; 7 nM DNA; EMSA, 7 nM fluorescein-labeled DNA, 10 min at 37 C; buffer, salt and pH not given in the material; conditions: protein: recombinant, tags: GST tag removed, label: 5'-fluorescein on strand 1
Esc2 FF173,174AA = target: T3, Esc2 FF173,174AA; experiment: EMSA; still proficient, degree only in figure; EMSA, 7 nM fluorescein-labeled DNA, 10 min at 37 C; buffer, salt and pH not given in the material; conditions: protein: recombinant; tags: expressed as GST fusion; tag status in assay not explicit; label: 5'-fluorescein on strand 1; fork 1:3 1:4 2:4; three duplex arms
Esc2 1-151 = target: T4, Esc2 1-151; experiment: EMSA; binding completely lost; up to 1000 nM protein; EMSA, 7 nM fluorescein-labeled DNA, 10 min at 37 C; buffer, salt and pH not given in the material; conditions: protein: recombinant; tags: expressed as GST fusion; tag status in assay not explicit; label: 5'-fluorescein on strand 1; fork 1:3 1:4 2:4; three duplex arms
Esc2 1-199 = target: T5, Esc2 1-199; experiment: EMSA; highly proficient; 7 nM DNA, 0-1000 nM protein; EMSA, 7 nM fluorescein-labeled DNA, 10 min at 37 C; buffer, salt and pH not given in the material; conditions: protein: recombinant; tags: expressed as GST fusion; tag status in assay not explicit; label: 5'-fluorescein on strand 1; fork 1:3 1:4 2:4; three duplex arms

Row | Binder | binding result (Esc2 200-456) | binding result (Esc2; fork 1:3 1:4 2:4, three duplex arms) | binding result (Esc2 FF173,174AA) | binding result (Esc2 1-151) | binding result (Esc2 1-199) | binding result (Esc2; 3' flap 1:2 1:3, 20 nt ss 3' flap on strand 3)
1 | B1 | no binding | binds | binds | no binding | binds | 
2 | B2 |  |  |  |  |  | binds
